Assay results taken from paper PMC7266993 (2020).

B1: FLAG epitope-tagged STAG1, wild type (transient, HEK293) [human] / RAD21 (endogenous, HEK293) [human (endogenous in HEK293)] (parent complex)
chain 1: MITSELPVLQDSTNETTAHSDAGSELEETEVKGKRKRGRPGRPPSTNKKPRKSPGEKSRIEAGIRGAGRGRANGHPQQNGEGEPVTLFEVVKLGKSAMQSVVDDWIESYKQDRDIALLDLINFFIQCSGCRGTVRIEMFRNMQNAEIIRKMTEEFDEDSGDYPLTMPGPQWKKFRSNFCEFIGVLIRQCQYSIIYDEYMMDTVISLLTGLSDSQVRAFRHTSTLAAMKLMTALVNVALNLSIHQDNTQRQYEAERNKMIGKRANERLELLLQKRKELQENQDEIENMMNSIFKGIFVHRYRDAIAEIRAICIEEIGVWMKMYSDAFLNDSYLKYVGWTLHDRQGEVRLKCLKALQSLYTNRELFPKLELFTNRFKDRIVSMTLDKEYDVAVEAIRLVTLILHGSEEALSNEDCENVYHLVYSAHRPVAVAAGEFLHKKLFSRHDPQAEEALAKRRGRNSPNGNLIRMLVLFFLESELHEHAAYLVDSLWESSQELLKDWECMTELLLEEPVQGEEAMSDRQESALIELMVCTIRQAAEAHPPVGRGTGKRVLTAKERKTQIDDRNKLTEHFIITLPMLLSKYSADAEKVANLLQIPQYFDLEIYSTGRMEKHLDALLKQIKFVVEKHVESDVLEACSKTYSILCSEEYTIQNRVDIARSQLIDEFVDRFNHSVEDLLQEGEEADDDDIYNVLSTLKRLTSFHNAHDLTKWDLFGNCYRLLKTGIEHGAMPEQIVVQALQCSHYSILWQLVKITDGSPSKEDLLVLRKTVKSFLAVCQQCLSNVNTPVKEQAFMLLCDLLMIFSHQLMTGGREGLQPLVFNPDTGLQSELLSFVMDHVFIDQDEENQSMEGDEEDEANKIEALHKRRNLLAAFSKLIIYDIVDMHAAADIFKHYMKYYNDYGDIIKETLSKTRQIDKIQCAKTLILSLQQLFNELVQEQGPNLDRTSAHVSGIKELARRFALTFGLDQIKTREAVATLHKDGIEFAFKYQNQKGQEYPPPNLAFLEVLSEFSSKLLRQDKKTVHSYLEKFLTEQMMERREDVWLPLISYRNSLVTGGEDDRMSVNSGSSSSKTSSVRNKKGRPPLHKKRVEDESLDNTWLNRTDTMIQTPGPLPAPQLTSTVLRENSRPMGDQIQEPESEHGSEPDFLHNPQMQISWLGQPKLEDLNRKDRTGMNYMKVRTGVRHAVRGLMEEDAEPIFEDVMMSSRSQLEDMNEEFEDTMVIDLPPSRNRRERAELRPDFFDSAAIIEDDSGFGMPMF
chain 2: MFYAHFVLSKRGPLAKIWLAAHWDKKLTKAHVFECNLESSVESIISPKVKMALRTSGHLLLGVVRIYHRKAKYLLADCNEAFIKIKMAFRPGVVDLPEENREAAYNAITLPEEFHDFDQPLPDLDDIDVAQQFSLNQSRVEEITMREEVGNISILQENDFGDFGMDDREIMREGSAFEDDDMLVSTTTSNLLLESEQSTSNLNEKINHLEYEDQYKDDNFGEGNDGGILDDKLISNNDGGIFDDPPALSEAGVMLPEQPAHDDMDEDDNVSMGGPDSPDSVDPVEPMPTMTDQTTLVPNEEEAFALEPIDITVKETKAKRKRKLIVDSVKELDSKTIRAQLSDYSDIVTTLDLAPPTKKLMMWKETGGVEKLFSLPAQPLWNNRLLKLFTRCLTPLVPEDLRKRRKGGEADNLDEFLKEFENPEVPREDQQQQHQQRDVIDEPIIEEPSRLQESVMEASRTNIDESAMPPPPPQGVKRKAGQIDPEPVMPPQQVEQMEIPPVELPPEEPPNICQLIPELELLPEKEKEKEKEKEDDEEEEDEDASGGDQDQEERRWNKRTQQMLHGLQRALAKTGAESISLLELCRNTNRKQAAAKFYSFLVLKKQQAIELTQEEPYSDIIATPGPRFHII

Variants of: B1
Test: co-immunoprecipitation (anti-FLAG IP), capillary immunodetection assay; HEK293; read off a plot

Point of comparison: chain 1 D797A, ratio to parent ~0.06. Against it:
- chain 1 D797K — higher, ~0.08
